Experimental data as given in patent US20130190228A1.

Biological target: hemagglutinin (HA) of A/PuertoRico/8/34 (PR/8, H1N1) influenza virus (influenza A virus A/PuertoRico/8/34 (H1N1)) (UniProt P03452)
Assay: cell-based or functional assay

Substance: EB peptide (entry blocker)
- EC50 of hemagglutination inhibition (PR/8): 2 µM
- EC50 of hemagglutination inhibition (PR/8, 64 HAU): 2.6 µM
- plaque reduction on MDCK cells (PR/8 pre-treated with peptide): 92%
